Assay results from patent US20260176358A1 (JIANGSU HENGRUI PHARMACEUTICALS, published 2026).
Residue numbers refer to the chain shown, from its start. Like-named read-outs stand apart in the source and are kept apart here. Blank lines part the entries; values can stand above or below the binder they belong to.

Experiments:
VIP = molecular target: T1, VIP (UniProt P01282 125-152, biotinylated in the ELISA); test: ELISA, biotinylated VIP on streptavidin plate
T1 construct: also called vasoactive intestinal peptide
T1 peptide (looked up): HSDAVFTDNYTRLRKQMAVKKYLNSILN
Procedure: (§1) In this test example, the abilities of the chimeric antibodies and humanized antibodies of C1 #, C9 #, C21 #, and C28 #to bind to human CGRP and rat CGRP were assessed using ELISAs. Plates were coated with […] human CGRP and rat CGRP, respectively, and blocked, and the antibodies, serially diluted, were then added. The plates were incubated for 1 h and washed, and a horseradish peroxidase-labeled anti-human Fc secondary antibody was then added. After incubation, color development was performed. […] The plates were incubated for 1 h and washed, and the antibodies, serially diluted, were then added. The plates were incubated for 1 h and washed, and a horseradish peroxidase-labeled streptavidin secondary antibody was then added. After incubation, color development was performed.

PACAP38 [1] = molecular target: T2, PACAP38 (UniProt P18509 132-169, biotinylated in the ELISAs); test: competition ELISA, biotinylated PACAP38 to coated PAC1-Fc
T2 peptide (looked up): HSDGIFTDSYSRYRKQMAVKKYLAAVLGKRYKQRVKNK
Procedure: (§2) The plates were incubated for 1 h and washed, and a horseradish peroxidase-labeled streptavidin secondary antibody was then added. After incubation, color development was performed.

PACAP38 [2] = molecular target: T2, PACAP38; test: competition ELISA, biotinylated PACAP38 to coated VPAC2-Fc
Procedure: as §2

PACAP38 [3] = molecular target: T2, PACAP38; test: cell-based or functional assay
PACAP38 [4] = molecular target: T2, PACAP38; test: ELISA, biotinylated peptide on streptavidin plate
Procedure: as §1

PACAP27 [5] = molecular target: T3, PACAP27 (UniProt P18509 132-158, biotinylated in the ELISAs); test: ELISA, biotinylated peptide on streptavidin plate
T3 peptide (looked up): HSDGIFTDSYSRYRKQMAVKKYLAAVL
Procedure: as §1

PACAP38 [6] = molecular target: T2, PACAP38; test: competition ELISA, biotinylated PACAP38 to coated VPAC1-Fc
Procedure: as §2

PACAP38 [7] = molecular target: T2, PACAP38; test: ELISA, antibody on coated anti-human Fc, biotinylated peptide
Procedure: (§3) Plates were coated with 1 μg/mL anti-human Fc and blocked, and the antibodies, serially diluted, were added. […] The plates were incubated for 1 h and washed, and a horseradish peroxidase-labeled streptavidin secondary antibody was then added. After incubation, color development was performed.

PACAP27 [8] = molecular target: T3, PACAP27; test: as above
Procedure: as §3

PACAP38 [9] = molecular target: T2, PACAP38; test: cell-based or functional assay
CGRP = test: cell-based or functional assay
human CGRP = molecular target: T4, human CGRP (human, UniProt P06881 83-119); test: SPR, Biacore 8K, 25 C, biotinylated antibody on SA chip, 1:1 model
T4 peptide (looked up): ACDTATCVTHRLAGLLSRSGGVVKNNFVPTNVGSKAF
Procedure: First, the test antibodies ([…] for the mAbs and 4 μg/mL for the diabodies), biotinylated (indicated by Biotin-), were each coupled onto an SA biosensor chip. Then samples of the antigen human CGRP were sequentially injected in ascending order for 180 s, followed by dissociation. After the test was finished, fitting was performed using a 1:1 binding model.

rat CGRP = molecular target: T5, rat CGRP (rat, UniProt P01256 83-119); test: SPR, Biacore 8K, antibody captured on Protein A chip, 1:1 model
T5 peptide (looked up): T4 peptide (looked up) with A1S, D3N, N25D, K35E
Procedure: A Protein A biosensor chip was used to affinity-capture IgG, and a molecule sample was then allowed to flow through the surface of the chip. Reaction signals were detected in real time using a Biacore 8K system to obtain association and dissociation curves. After the dissociation in each experimental cycle was complete, the biosensor chip was washed and regenerated 3 times with 50 mM NaOH. Data fitting was performed using a 1:1 model.

- binding result (VIP): no binding
- IC50 (PACAP38 [1]): 0.48 nM
- IC50 (PACAP38 [2]): 0.23 nM
- IC50, inhibition of cAMP production in SH-SY5Y cells (PACAP38 [3]): 1.46 nM
- EC50 (PACAP38 [4]): 0.09 nM
- EC50 (PACAP27 [5]): 0.14 nM
- IC50 (PACAP38 [6]): 0.27 nM
B1: P14#-CHI (antibody, human IgG1, kappa, V domains shown)
VH: DVKLVESGGGLVKPGGSLKVSCAASGFAFNNYDMSWVRQTPEKRLDWVATITGGGSYTWYPDSVKGRFTISRDNARNTLFLQMSSLRSEDTALYYCARLNGYDQAGAMDYWGQGTSVTVSS
VL: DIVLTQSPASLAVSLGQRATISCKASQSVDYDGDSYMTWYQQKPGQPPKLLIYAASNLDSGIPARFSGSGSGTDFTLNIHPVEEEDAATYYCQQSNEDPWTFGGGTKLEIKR
notes: chimeric: murine variable regions fused to human constant regions; also called P14#-CH1

- EC50 (PACAP38 [7]): 0.22 nM
- EC50 (PACAP27 [8]): 0.33 nM
- IC50, inhibition of cAMP production in SH-SY5Y cells (PACAP38 [9]): 11 nM
- IC50, inhibition of cAMP production in SK-N-MC cells (CGRP): 5.79 nM
- Kd (human CGRP): 0.00764 nM
- koff (human CGRP): 3.31e-05 s⁻¹
- kon (human CGRP): 4.34e+06 M⁻¹ s⁻¹
- Kd (rat CGRP): 0.0897 nM
- koff (rat CGRP): 0.000301 s⁻¹
- kon (rat CGRP): 3.35e+06 M⁻¹ s⁻¹
B2: CP-3 (bispecific antibody, human IgG1, kappa)
heavy 1: EVQLVESGGGLVQPGGSLRLSCAASGFAFNNYDMSWVRQAPGKGLEWVATITGGGSYTWYPDSVKGRFTISRDNAKNSLYLQMNSLRAEDTAVYYCARLTGYDQAGAMDYWGQGTTVTVSSASTKGPSVFPLAPSSKSTSGGTAALGCLVKDYFPEPVTVSWNSGALTSGVHTFPAVLQSSGLYSLSSVVTVPSSSLGTQTYICNVNHKPSNTKVDKKVEPKSCDKTHTCPPCPAPELLGGPSVFLFPPKPKDTLYITREPEVTCVVVDVSHEDPEVKFNWYVDGVEVHNAKTKPREEQYNSTYRVVSVLTVLHQDWLNGKEYKCKVSNKALPAPIEKTISKAKGQPREPQVYTLPPCRDELTKNQVSLWCLVKGFYPSDIAVEWESNGQPENNYKTTPPVLDSDGSFFLYSKLTVDKSRWQQGNVFSCSVMHEALHNHYTQKSLSLSPGK
light 1: DIVLTQSPDSLAVSLGERATINCKASQSVDYDGDSYMTWYQQKPGQPPKLLIYAASHLDSGIPDRFSGSGSGTDFTLTISSLQAEDVAVYYCQQSNEDPWTFGGGTKVEIKRTVAAPSVFIFPPSDEQLKSGTASVVCLLNNFYPREAKVQWKVDNALQSGNSQESVTEQDSKDSTYSLSSTLTLSKADYEKHKVYACEVTHQGLSSPVTKSFNRGEC
heavy 2: EVQLVQSGAEVKKPGASVKVSCKASGYTFTDYYMNWVRQAPGQRLEWMGDINPNTGVTTYNQKFKGRVTITVDKSASTAYMELSSLRSEDTAVYYCASIIIVPDYFDYWGQGTTVTVSSGGGGSGIPPKIECLPIDISIDEGKVLTVASAFTGEPTPEVTWSTGGRKIHSQEQGRFHIENTDDSTTLTIKDVQKQDGGLYTLTLRNEFGSDSATVNIHIRSIDKTHTCPPCPAPELLGGPSVFLFPPKPKDTLYITREPEVTCVVVDVSHEDPEVKFNWYVDGVEVHNAKTKPREEQYNSTYRVVSVLTVLHQDWLNGKEYKCKVSNKALPAPIEKTISKAKGQPREPQVCTLPPSRDELTKNQVSLSCAVKGFYPSDIAVEWESNGQPENNYKTTPPVLDSDGSFFLVSKLTVDKSRWQQGNVFSCSVMHEALHNHYTQKSLSLSPGK
light 2: DIQMTQSPSSVSASVGDRVTITCKASQNVGSNVAWYQQKPGKSPKALIYSASYRYSGVPSRFSGSGSGTDFTLTISSLQPEDFATYYCQQYNSYPYTFGGGTKVEIKGGGGSSGAPRFLTRPKASVVSVGKDATLSCQIVGNPFPQVSWEKDKQPVTAGVRFRLAQDGDLYRLKILDLQLSDSGQYVCRARNAHGEAFACLGLQVDAEA
notes: Format 1+1, anti-PACAP Fab (P14H2L3) and anti-CGRP Titin/Obscurin Fab (C28H6L1), knob-into-hole IgG1 (YTE) Fc; also called Biotin-CP-3

- binding result (VIP): no binding
- IC50 (PACAP38 [1]): 0.45 nM
- IC50 (PACAP38 [2]): 0.18 nM
- IC50, inhibition of cAMP production in SH-SY5Y cells (PACAP38 [3]): 2.37 nM
- EC50 (PACAP38 [4]): 0.09 nM
- EC50 (PACAP27 [5]): 0.19 nM
- IC50 (PACAP38 [6]): 0.19 nM
B3: P14H1L2 (antibody, human IgG1, kappa, V domains shown)
VH: EVQLVESGGGLVKPGGSLRLSCAASGFAFNNYDMSWVRQAPGKGLEWVATITGGGSYTWYPDSVKGRFTISRDNAKNSLYLQMNSLRAEDTAVYYCARLTGYDQAGAMDYWGQGTTVTVSS
VL: DIVLTQSPDSLAVSLGERATINCKASQSVDYDGDSYMTWYQQKPGQPPKLLIYAASNLDSGIPDRFSGSGSGTDFTLTISSLQAEDVAVYYCQQSNEDPWTFGGGTKVEIKR

- binding result (VIP): no binding
- IC50 (PACAP38 [1]): 0.51 nM
- IC50 (PACAP38 [2]): 0.21 nM
- EC50 (PACAP38 [4]): 0.11 nM
- EC50 (PACAP27 [5]): 0.19 nM
- IC50 (PACAP38 [6]): 0.2 nM
B4: P14H1L1 (antibody, human IgG1, kappa, V domains shown)
VH: B3 VH
VL: B3 VL with L4M, I62V

- binding result (VIP): no binding
- EC50 (PACAP38 [7]): 0.13 nM
- EC50 (PACAP27 [8]): 0.16 nM
- IC50 (PACAP38 [1]): 0.67 nM
- IC50, inhibition of cAMP production in SH-SY5Y cells (PACAP38 [9]): 2.4 nM
- IC50 (PACAP38 [2]): 0.4 nM
- IC50, inhibition of cAMP production in SH-SY5Y cells (PACAP38 [3]): 4.02 nM
- EC50 (PACAP38 [4]): 0.09 nM
- EC50 (PACAP27 [5]): 0.2 nM
- IC50 (PACAP38 [6]): 0.58 nM
B5: P14H2L3 (antibody, human IgG1, kappa, V domains shown)
VH: B3 VH with K13Q
VL: B3 VL with N57H
